Patent publication US20090264352A1 (published 2009)

Target: T1, GLP-1 receptor (RINm5F cell membranes) (UniProt P32301 22-463, limits assumed)
T1 construct: whole, on cells; The receptor source is homogenized cell membranes, not intact cells
T1 sequence (looked up): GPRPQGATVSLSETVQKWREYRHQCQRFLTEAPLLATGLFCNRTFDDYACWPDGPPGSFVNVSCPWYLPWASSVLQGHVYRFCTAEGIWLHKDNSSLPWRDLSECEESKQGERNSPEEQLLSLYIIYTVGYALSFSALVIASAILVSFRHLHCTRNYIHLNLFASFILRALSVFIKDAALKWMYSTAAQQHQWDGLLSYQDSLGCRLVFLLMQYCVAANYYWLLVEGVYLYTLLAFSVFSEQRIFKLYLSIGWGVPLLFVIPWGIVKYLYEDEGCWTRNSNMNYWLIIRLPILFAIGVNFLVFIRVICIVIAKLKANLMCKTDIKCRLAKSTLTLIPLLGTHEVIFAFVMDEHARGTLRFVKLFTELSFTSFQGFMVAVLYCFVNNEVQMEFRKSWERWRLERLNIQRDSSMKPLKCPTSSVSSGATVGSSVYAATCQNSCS
Assay: displacement of [125I]GLP-1 from RINm5F cell membranes, filtration and scintillation counting
Experimental: Reaction mixtures are filtered through glass filter pads presoaked with 0.3% PEI solution and rinsed with ice-cold phosphate buffered saline. Bound counts are determined using a scintillation counter. Binding affinities are calculated using GraphPad Prism [sequence] PRISM® software (GraphPad Software, Inc., San Diego, Calif.).

IC50: 65 nM
B1: GLP-1 (9-36) (peptide, UniProt P01275 100-127, looked up)
peptide: EGTFTSDVSSYLEGQAAKEFIAWLVKGR
notes: range 100-127; Test compound in the displacement assay
